The results in this text go back to publication PMC3985676.

The assay deals with BswR (Bacterial SWarming Regulator), PA2780 (Pseudomonas aeruginosa). Put plainly: SEC; gel filtration profile during protein purification; HiLoad Superdex 75 26/60; 20 mM Tris pH 7.5, 200 mM NaCl, 5 mM beta-ME.

In general, stoichiometry N refers to the number of molecules, sites or subunits per partner or assembly. The substance “BswR (Bacterial SWarming Regulator), PA2780 (natural protein)” gave a stoichiometry N of 2.
